Experimental data: PMC3683042, “Solution Structure and Peptide Binding of the PTB Domain from the AIDA1 Postsynaptic Signaling Scaffolding Protein” (PLoS ONE, 2013)

Key:
[1] = Thermal denaturation midpoint (Tm) by CD spectroscopy; type: physicochemical; settings: far UV CD, ellipticity at 222 nm, 50 µM protein, heating 20–90°C at 2°C/min
Protocol: Far UV circular dichroism (CD) spectra were acquired with a Jasco J-810 instrument at a protein concentration of 50 µM using a rectangular cell with a 0.1 cm path length. Spectra were recorded from 260–200 nm with a scan rate of 50 nm/min and a 1.0 nm bandwidth. A midpoint denaturation temperature (Tm) was determined by heating samples from 20–90°C at 2°C/min and monitoring ellipticity at 222 nm.

[2] = Solubility of the AIDA1 PTB domain and mutants
Excerpt: Since the objective of the aromatic-alanine substitutions was to improve solubility for a structure determination, ^15N-HSQC spectra were used qualitatively.

B1: wild type: PTB domain (aa. 1043–1195) of human AIDA1b, amino terminal 6xHis tag and intervening thrombin site (protein, UniProt Q7Z6G8 1043-1195, looked up, fragment)
chain: TPVQYWQHHPEKLIFQSCDYKAFYLGSMLIKELRGTESTQDACAKMRANCQKSTEQMKKVPTIILSVSYKGVKFIDATNKNIIAEHEIRNISCAAQDPEDLSTFAYITKDLKSNHHYCHVFTAFDVNLAYEIILTLGQAFEVAYQLALQARKG
modifications: PTB domain His tag, thrombin site
notes: PTB domain (aa. 1043–1195) of human AIDA1b, amino terminal 6xHis tag and intervening thrombin site
Q: What does the source list for B1?
A: Tm [1]: 62 °C; solubility (in words) [2]: poor solubility; soluble concentration, at least one day at room temperature [2]: 0.15 mM; Solubility ([2]; concentrated until increased resonance line broadening or apparent turbidity, 15N-HSQC NMR read-out, 20 mM Na-phosphate, pH 7.8, […] NaCl, 0.05% (w/v) NaN3): 100 µM
